Biological target: the molecule itself
Test: crystal structure

B1: N-terminal dimerization domain of S. pombe Cdc23 (Cdc23^N19-302,Y302A) (domain or fragment, UniProt O94556 19-302, looked up)
chain: QLREIRNCLLKCISECSERGLVYAVRWAAEMLNGMNPIEMEHIPFSSTPTGEFDLDPDMANEKLLEVEEKNIYLLAKSYFDCKEFERAAYTLQNCKSSKSIFLRLYSKYLAGEKKSEEENETLLNTNLTLSSTNREFYYISEVLESLHYQGNKDPYLLYLSGVVYRKRKQDSKAIDFLKSCVLKAPFFWSAWLELSLSIDSLETLTTVVSQLPSTHIMTKIFYVYASHELHQVNSSAYEKLAEAEIIFPNSRYLKTQRALLTYDSRDFDEAESLFENILTNDPA
stoichiometry N: 2

Reference: publication PMC3898896 (Journal of Molecular Biology, 2013)
